# B1: TrxR 2: recombinant human thioredoxin reductase 2, selenoenzyme (protein, UniProt Q9NNW7 37-524, looked up)
# Thioredoxin reductase 2, …: QRDYDLLVVGGGSGGLACAKEAAQLGRKVAVVDYVEPSPQGTRWGLGGTCVNVGCIPKKLMHQAALLGGLIQDAPNYGWEVAQPVPHDWRKMAEAVQNHVKSLNWGHRVQLQDRKVKYFNIKASFVDEHTVCGVAKGGKEILLSADHIIIATGGRPRYPTHIEGALEYGITSDDIFWLKESPGKTLVVGASYVALECAGFLTGIGLDTTIMMRSIPLRGFDQQMSSMVIEHMASHGTRFLRGCAPSRVRRLPDGQLQVTWEDSTTGKEDTGTFDTVLWAIGRVPDTRSLNLEKAGVDTSPDTQKILVDSREATSVPHIYAIGDVVEGRPELTPIAIMAGRLLVQRLFGGSSDLMDYDNVPTTVFTPLEYGCVGLSEEEAVARHGQEHVEVYHAHYKPLEFTVAGRDASQCYVKMVCLREPPQLVLGLHFLGPNAGEVTQGFALGIKCGASYAQVMRTVGIHPTCSEEVVKLRISKRSGLDPTVTGCUG
molecule,measurement,setting,value
B1,Kobs,"5% (mol) catalyst, 2.5% (v/v) DMSO, 190 μM 3, Tris pH 7.8, 6 °C, uncatalyzed 0.014 ± 0.001",0.035 ± 0.003 M⁻¹ s⁻¹
same,time until total completion of homodimerization,5% mol,5 days

# Source: PMC7794297
